According to PMC3711433, “Differential roles of human Dicer-binding proteins TRBP and PACT in small RNA processing” (Nucleic Acids Research, 2013):
One block for each binder: values may come before it.

What was measured:
Dicer;PACT = Dicer;PACT (human;human, UniProt Q9UPY3;O75569 1-1922;1-313, |); assay: EMSA; 0.5 uM dsRNA, up to 1 uM complex; shift distinct from PACT alone; Fig 1B: 20 mM HEPES pH 7.5, 300 mM KCl, 5% glycerol, 1 mM TCEP, on ice 45 min, 6% native PAGE; Fig S5: 20 mM Tris-HCl pH 6.5, 1.5 mM MgCl2, 25 mM NaCl, 1 mM DTT, 1% glycerol, on ice 60 min; settings: protein: recombinant;recombinant; tags: ;His6-MBP removed by TEV; copies: 1;1
Dicer;TRBP = Dicer;TRBP (human;human, UniProt Q9UPY3;Q15633 1-1922;1-366, |); assay: EMSA; 0.5 uM dsRNA, up to 1 uM complex; Fig 1B: 20 mM HEPES pH 7.5, 300 mM KCl, 5% glycerol, 1 mM TCEP, on ice 45 min, 6% native PAGE; Fig S5: 20 mM Tris-HCl pH 6.5, 1.5 mM MgCl2, 25 mM NaCl, 1 mM DTT, 1% glycerol, on ice 60 min; settings: protein: recombinant;recombinant; copies: 1;1
TRBP = molecular target: T1, TRBP (human, UniProt Q15633 1-366); assay: EMSA; 0.5 uM dsRNA, up to 1 uM protein; Fig 1B: 20 mM HEPES pH 7.5, 300 mM KCl, 5% glycerol, 1 mM TCEP, on ice 45 min, 6% native PAGE; Fig S5: 20 mM Tris-HCl pH 6.5, 1.5 mM MgCl2, 25 mM NaCl, 1 mM DTT, 1% glycerol, on ice 60 min; settings: protein: recombinant
T1 sequence: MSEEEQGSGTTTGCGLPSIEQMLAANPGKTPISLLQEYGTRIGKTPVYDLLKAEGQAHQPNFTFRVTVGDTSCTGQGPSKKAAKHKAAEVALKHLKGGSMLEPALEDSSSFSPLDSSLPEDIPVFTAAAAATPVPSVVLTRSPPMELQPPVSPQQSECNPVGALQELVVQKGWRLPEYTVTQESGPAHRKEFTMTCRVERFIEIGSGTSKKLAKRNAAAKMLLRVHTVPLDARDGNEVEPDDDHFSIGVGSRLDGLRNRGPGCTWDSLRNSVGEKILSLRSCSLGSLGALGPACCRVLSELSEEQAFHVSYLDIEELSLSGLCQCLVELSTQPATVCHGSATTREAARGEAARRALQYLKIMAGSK

Dicer [1] = molecular target: Dicer (human, UniProt Q9UPY3 1-1922); assay: as above; settings: protein: recombinant
Target sequence in this assay (Q9UPY3 whole entry): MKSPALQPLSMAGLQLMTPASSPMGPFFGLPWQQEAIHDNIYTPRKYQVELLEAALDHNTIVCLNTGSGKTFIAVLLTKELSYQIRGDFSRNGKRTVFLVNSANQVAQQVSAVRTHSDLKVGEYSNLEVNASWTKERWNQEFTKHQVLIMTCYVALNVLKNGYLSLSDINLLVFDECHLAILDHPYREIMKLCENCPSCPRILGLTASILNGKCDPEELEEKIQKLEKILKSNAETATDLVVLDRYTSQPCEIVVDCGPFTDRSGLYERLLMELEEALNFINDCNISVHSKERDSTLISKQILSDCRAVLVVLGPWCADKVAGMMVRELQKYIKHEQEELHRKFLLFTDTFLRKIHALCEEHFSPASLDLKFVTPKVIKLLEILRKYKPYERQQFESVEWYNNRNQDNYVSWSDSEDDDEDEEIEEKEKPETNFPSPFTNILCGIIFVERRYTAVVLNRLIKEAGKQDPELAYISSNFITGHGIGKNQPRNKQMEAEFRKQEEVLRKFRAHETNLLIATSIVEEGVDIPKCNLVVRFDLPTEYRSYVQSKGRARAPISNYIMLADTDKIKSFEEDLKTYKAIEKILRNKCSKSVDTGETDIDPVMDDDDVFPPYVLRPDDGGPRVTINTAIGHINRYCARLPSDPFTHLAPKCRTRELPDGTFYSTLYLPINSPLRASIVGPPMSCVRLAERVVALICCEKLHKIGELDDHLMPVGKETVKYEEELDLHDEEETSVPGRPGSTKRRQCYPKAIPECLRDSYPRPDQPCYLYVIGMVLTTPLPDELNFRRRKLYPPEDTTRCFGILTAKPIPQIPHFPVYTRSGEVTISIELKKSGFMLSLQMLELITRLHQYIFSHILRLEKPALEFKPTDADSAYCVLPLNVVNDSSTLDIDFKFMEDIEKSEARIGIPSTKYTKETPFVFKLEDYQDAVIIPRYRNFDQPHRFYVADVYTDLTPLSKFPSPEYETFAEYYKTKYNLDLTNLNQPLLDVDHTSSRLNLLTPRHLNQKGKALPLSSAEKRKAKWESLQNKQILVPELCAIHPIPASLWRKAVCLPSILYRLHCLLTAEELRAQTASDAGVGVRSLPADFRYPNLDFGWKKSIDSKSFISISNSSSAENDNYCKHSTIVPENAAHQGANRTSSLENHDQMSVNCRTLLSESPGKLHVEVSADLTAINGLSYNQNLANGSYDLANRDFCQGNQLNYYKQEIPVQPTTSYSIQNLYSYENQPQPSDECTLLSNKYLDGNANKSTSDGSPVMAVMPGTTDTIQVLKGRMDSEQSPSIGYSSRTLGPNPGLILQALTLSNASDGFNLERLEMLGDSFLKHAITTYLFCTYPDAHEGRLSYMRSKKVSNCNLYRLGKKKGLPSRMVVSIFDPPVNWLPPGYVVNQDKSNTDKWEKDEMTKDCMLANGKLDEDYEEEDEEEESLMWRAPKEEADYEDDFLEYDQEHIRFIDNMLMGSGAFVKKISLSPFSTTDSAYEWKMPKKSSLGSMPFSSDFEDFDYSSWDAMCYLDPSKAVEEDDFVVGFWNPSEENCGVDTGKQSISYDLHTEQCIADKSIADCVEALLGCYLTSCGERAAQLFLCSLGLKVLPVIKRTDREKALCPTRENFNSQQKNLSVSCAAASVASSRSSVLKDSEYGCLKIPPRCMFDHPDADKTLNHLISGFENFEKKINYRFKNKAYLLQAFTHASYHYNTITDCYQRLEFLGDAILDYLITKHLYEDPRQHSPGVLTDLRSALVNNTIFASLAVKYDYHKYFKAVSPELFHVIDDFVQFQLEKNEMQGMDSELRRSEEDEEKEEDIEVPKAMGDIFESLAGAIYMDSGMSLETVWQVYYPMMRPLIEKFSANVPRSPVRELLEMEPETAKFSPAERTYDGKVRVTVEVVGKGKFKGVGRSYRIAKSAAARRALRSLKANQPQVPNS

Dicer [2] = molecular target: T2, Dicer (human, UniProt Q9UPY3 1-1922); assay: SEC; gel filtration column chromatography of Dicer with the dsRBP or chimeric dsRBP, reconstituted from purified proteins; settings: both partners purified
T2 construct: Dicer, human endoribonuclease; also called endonuclease Dicer
T2 sequence (Q9UPY3 whole entry): as above

Dicer [3] = molecular target: T2, Dicer; assay: native gel or EMSA; dsRNA A (0.5 uM) with 0, 0.5 or 1 uM protein or complex in 20 mM HEPES (pH 7.5), 300 mM KCl, 5% glycerol, 1 mM TCEP, on ice 45 min, 6% native PAGE, SYBR-Gold; the shift by the Dicer-dsRBP complex is compared with that by the dsRBP alone; settings: both partners purified

Chain of Dicer;TRBP (Q9UPY3 whole entry, one chain of several): as the sequence (Q9UPY3 whole entry) above
Chain of Dicer;PACT (Q9UPY3 whole entry, one chain of several): as the sequence (Q9UPY3 whole entry) above

B1: dsRNA A (dsRNA)
RNA 1: UGGCCUUGGGCAACGGUAAUU
RNA 2: UUACCGUUGCCCAAGGCCAUU
binding result (Dicer;PACT): binds | binding result (Dicer;TRBP): binds | binding result (TRBP): binds | binding result (Dicer [1]): no binding

binding result (Dicer [2]): binds
B2: T12P3 (other, human, UniProt Q15633 1-232, looked up)
chain: MSEEEQGSGTTTGCGLPSIEQMLAANPGKTPISLLQEYGTRIGKTPVYDLLKAEGQAHQPNFTFRVTVGDTSCTGQGPSKKAAKHKAAEVALKHLKGGSMLEPALEDSSSFSPLDSSLPEDIPVFTAAAAATPVPSVVLTRSPPMELQPPVSPQQSECNPVGALQELVVQKGWRLPEYTVTQESGPAHRKEFTMTCRVERFIEIGSGTSKKLAKRNAAAKMLLRVHTVPLDAPENHISLTNVVGHSLGCTWHSLRNSPGEKINLLKRSLLSIPNTDYIQLLSEIAKEQGFNITYLDIDELSANGQYQCLAELSTSPITVCHGSGISCGNAQSDAAHNALQYLKIIAERK
notes: TRBP, human, residues 1-232 (dsRBD1, linker, dsRBD2); PACT, human, residues 197-313 (with dsRBD3); purified by the PACT method, which removes His6-MBP by TEV cleavage; also called chimeric protein T12P3; source: purified (HiTrap-Q flow-through, HiTrap-SP, then as PACT)

binding result (Dicer [3]): binds
B3: trans-activation response RNA-binding protein (TRBP) (natural protein, human, UniProt Q15633 1-366, looked up)
chain: T1 sequence
notes: called full-length; the chimeras' limits run to residue 366; removal of His6-MBP after TEV cleavage on a Ni-NTA column is told by comparison with the PACT purification

binding result (Dicer [2]): binds
B4: protein activator of PKR (PACT) (natural protein, human, UniProt O75569 1-313, looked up)
chain: MSQSRHRAEAPPLEREDSGTFSLGKMITAKPGKTPIQVLHEYGMKTKNIPVYECERSDVQIHVPTFTFRVTVGDITCTGEGTSKKLAKHRAAEAAINILKANASICFAVPDPLMPDPSKQPKNQLNPIGSLQELAIHHGWRLPEYTLSQEGGPAHKREYTTICRLESFMETGKGASKKQAKRNAAEKFLAKFSNISPENHISLTNVVGHSLGCTWHSLRNSPGEKINLLKRSLLSIPNTDYIQLLSEIAKEQGFNITYLDIDELSANGQYQCLAELSTSPITVCHGSGISCGNAQSDAAHNALQYLKIIAERK
notes: called full-length; the chimeras' limits run to residue 313; source: purified (TEV cleavage, HiTrap-SP, Superdex-200)
